Reference: article PMC8639777 (Nature, 2021)
Substitutions are numbered along the chain they refer to. In names and notes the source's numbering stands.

B1: human ALKAL2 ALKAL domain (ALKAL2-AD), residues 71-152, wild type (ligand, UniProt Q6UX46 71-152, looked up)
chain: AEAAGLGPSPEQRVEIVPRDLRMKDKFLKHLTGPLYFSPKCSKHFHRLYHNTRDCTIPAYYKRCARLLTRLAVSPVCMEDKQ
B2: human ALKAL2-AD (71-152) R123E (ligand, UniProt Q6UX46 71-152, looked up)
chain: B1 chain with R53E
B3: human ALKAL2-AD (71-152) R140E (ligand, UniProt Q6UX46 71-152, looked up)
chain: B1 chain with R70E

Assays:
Experiment in all cases: BLI
[1] = biological target: human ALK GRD (678-1030) Y966R (human, UniProt Q9UM73 678-1030, Y966R)
[2] = biological target: human ALK glycine-rich domain (GRD), residues 678-1030, wild type (human, UniProt Q9UM73 678-1030)
[3] = biological target: human ALK GRD (678-1030) E974R (human, UniProt Q9UM73 678-1030, E974R)
[4] = biological target: human ALK GRD (678-1030) E978R (human, UniProt Q9UM73 678-1030, E978R)
Chain of human ALK GRD (678-1030) E978R (Q9UM73 678-1030 E978R): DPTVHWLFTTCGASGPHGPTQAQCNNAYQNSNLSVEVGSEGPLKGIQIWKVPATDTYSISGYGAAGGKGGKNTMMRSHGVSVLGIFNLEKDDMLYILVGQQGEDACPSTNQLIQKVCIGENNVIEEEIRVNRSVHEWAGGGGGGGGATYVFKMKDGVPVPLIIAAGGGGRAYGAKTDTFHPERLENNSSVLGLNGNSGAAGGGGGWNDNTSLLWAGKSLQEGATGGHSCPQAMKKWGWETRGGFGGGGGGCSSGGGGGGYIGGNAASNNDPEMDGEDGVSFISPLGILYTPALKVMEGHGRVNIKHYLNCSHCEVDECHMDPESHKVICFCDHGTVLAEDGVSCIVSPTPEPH

Chain of human ALK glycine-rich domain (GRD), residues 678-1030, wild type (Q9UM73 678-1030): as the sequence (Q9UM73 678-1030 E978R) above, with R301E counted along it
Chain of human ALK GRD (678-1030) Y966R (Q9UM73 678-1030 Y966R): as the sequence (Q9UM73 678-1030 E978R) above, with Y289R, R301E counted along it
Chain of human ALK GRD (678-1030) E974R (Q9UM73 678-1030 E974R): as the sequence (Q9UM73 678-1030 E978R) above, with E297R, R301E counted along it

Binder	Kd [1]	Kd [2]	Kd [3]	Kd [4]
B1	5.12 µM	329 nM	1410 nM	6.11 µM
B2		391 nM		
B3		2950 nM		
